A short description of the data set: soluble on expression in E. coli; label from the status in PepcDB or PDB records.
“MLPNGRKWLDLWRKNVTVTAGGFLAISATTGVAGYEMAKDDVTLIKNGNKQEIRTHAKTVKELLAEQNIQPRKEDYVYPSLHSPITDDLHIVWEASKEVTLTVNGKKKKIWTTADTVAELLRSQHVAVGAYDKVAPALSAKIQKGMDIGVEKAFPVHVNVGGKQQQVWTTSTTVADFLKQQGIQLGQFDRIEPSLHETVKEQMTIRVIRVKKVTDVVEEPVDFAVVTKRDDSLPKGERRVIQPGEKGMVQKTYEVTLENGKETARKLIAAKTLKESKARIVAIGTKTVRSAAAPDRPSSRGSDHAAKEFYVTATAYTAYCAGCSGITSTGINLRKNPSAKVIAVDPSIIPLGSKVYVEGYGYAIAADTGSGIRGYKIDVFFPERSDAFRWGRKRVKIRVLP”: the “soluble on expression in E. coli” value was “not soluble”.
The value for “MLPRAEQKQQTRRALLDAAHQLMESGRGFGSLSLREVARTAGIVPTGFYRHFEDMDQLGLALVIEVGQTFRETIRLVRHNEFAMGGLIRASVKIFLERVAANRSQFLFLAREQYGGSLKVRQALGALREGISADLTADLAKMPKWQHLNADALSIIADLVVKSVFAMLPELIDPPPASLAPHLTPQAKITQQLRFIFIGARHWRGLGTHD” was “not soluble”; that for “MLPVSCKLPNMGTYQSYLSSSMPAGCVLPVGGNFEILLHYYLLNYAKKCHQSEETMVSMIIANALLGIPKVLYKSKTGKYSFPHTYIRAVHALQTNQPLVSSQTGLESVMGKYQLLTSVLQCLTKILTIDMVITVKRHPQKVHNQDSEDELLEHHHHHH” was “not soluble”; that for “MLQCIFLISDSGEVMLEKQLTGHRVDRSICAWFWDQYISQGDSFKALPVIASPTHYLFQIVRDGITFLACSQVEMPPLMAIEFLCRVADVLSEYLGGLNEDLIKDNFIIVYELLDEMIDNGFPLTTEPSILKEMIAPPNLVSKMLSVVTGNASNVSDTLPSGAGSCVPWRPTDPKYSSNEVYVDLVEEMDAIVNRDGELVKCEIYGEVQMNSQLTGFPDLTLSFANPSILEDMRFHPCVRYRPWESHQVLSFVPPDGEFKLMSYRVKKLKNTPVYVKPQITSDSGTCRISVLVGIRSDPGKTIESITLSFQLPHCVSSADLSSNHGTVTILSNKTCTWTIGRIPKDKTPCLSGTLALEPGLERLHVFPTFKLGFKIMGIALSGLRIEKLDLQTIPPRLYKGFRAQTRAGEFDVRL” was “soluble”.
The value for “MLQLKNIGILSTYNSKTDSFDYLKNCNIDIENGIIIGLGDSNHNGDQVIDCNHKLVTPGFVDAHTHPVFVNGREKEFIERISGKSYQEISNKGGGINSSIIRVREIDEIDLLDLVIKRMDDFIYMGTTTIEAKTGYGLNTDSELKSLRVLENAHNKHKIDIFPTFLGAHSVPNEYNGDSNAYTDLLCNEMIPAVAKQGIAKFCDVFCEEEYFDCNQSRKILEKAVEYGLIPRMHTDEFSSIGGVKIASKINAISADHLMEISDEDIELLANSNTIAILLPGTTFFLGKTTYAPARKLIDKGVHVSIATDFNPGSCHIKSMPFIIGLSCIYLGLSIEEALKAATWSGACAINEQERIGSIEVGKKADLIIWDLDTIDQIPYNIINAPIVNVIKDGVPLITLD” was “soluble”; that for “MLQNSRIKMNPKKLYQADGHAVQELLPAMKILYQAKAEDPNTDNSPKWTQVKNKLSSKMQEVRITRQLSSQLPETGALLSELLSRQEFISQQHERAASRAVPLAEAEKVLQATVQNIAQETEQLSNKLNNVASDEAELDEKIERKKREYEQLQKRFAKLQSFRPQYMDEYERFEERLKKLYEVYVLNFRNLSYLRKVHDDLARSERQRQEELEKAMRMAVEKMRLEQEKKDAIGLHDDDGSDAPLVDRRQSVRKVYGNMMGGDASDDDEDDEDDEDDEIIRMDDNVAQHHKRELHRQEEDEERSEADYMVGITTAHVADDAKSDLSSGDDF” was “not soluble”.
On to “MLQPPTLTPNANGEEFRGSVSTDRSSASPSNIDEIMEDDVNQKDEDEDLNLVDRVSKLETNFVFIQHQLSSIMNHLHAPQCKCTTCSKVNQPGAEEQKNDTSVLSQLFPNASDQQLKTLLDLSKMNKLPSQVVHKDQQNGSSFLPSANKTSENPKPIELKPLKLGQGYQMANGGGGGKIHTERLSEPARKQSRKVGFPPPVASYYQRKESSNPLVPPTPLSSIPNLITNSNAVSANTSTASPGPSSEGSGDDHLEAPNEVAHMHSSTVPATPTTPGANLFTQSMVDMLKLNAQNAAHSTGSPGFLRGRGRGRPKLIGDELDADLVDYMVSLKNSDPHGGHFTASQALHMARQYILERAPGLLEEHGGHVKLKLTWAMKLVSRIGERQREIELGLPAGTLSNMGRNLTNIPAGGNFMADMMAQNIFSQHMMMVNQQLEGGSPPASSSSTATTSTATKTVKQESKNGHQNEENLNVKQEASTMPEIINIKELNLPFLNNFLAELNDNNSGLIDGEIGAAGPSMAALFAPNA”, for which the “soluble on expression in E. coli” value is “not soluble”.
In the case of “MLQPTPTLTDQVAGQLARAIADGAYAVGAKLPTGRALAQQYGVSAAVIREATERLRAQGLVQSRQGSGCTVVARMPAGGFQVPAGGLDRAHLARVYELRMELEGGAAALAARRRGAADLDRMRQALQALQREPIEPEQGVVHDVGFHVAIATATANPYYLQLLQYLNLQLRQAVETARANTRRQGDPVHAVHEEHLAIYRAIERGEPEAARAAAQHHLLGAAARLQLDMNL” it was “not soluble”.
Take “MLQSLKDVAKQAPVHRKLDIQEWKTAEGAKVLFVEAHELPMFDLRLTFAAGSSQDAGTPGLSMLTNAMLNEGVPGKDTTAIAAGFEDLGASFSNGSYRDMAVAGLRSLSEADKRTQALKLFEQVIGQPTFPEDALARIKNQVLAGFEYQKQNPGKLAGLELFKRLYGEHPYAHSSDGDEKSVPTISREQLQAFHKKAYAAGNVVIALVGDLSRQEAEAIAAEVSKALPQGPALAKTLEHHHHHH”: the “soluble on expression in E. coli” value is listed as “soluble”.
Regarding “MLQYPELPLESPLIDAELPDPRGGRYRLSQFHEPLLAVVFMCNHCPYVKGSIGELVALAERYRGKVAFVGINANDYEKYPEDAPEKMAAFAEEHGIFFPYLLDETQEVAKAYRALRTPEVFLFDERRLLRYHGRVNDNPKDPSKVQSHDLEAAIEALLRGEEPPLKEAPAIGCTIKWRPGNEPEVRIG”, the “soluble on expression in E. coli” value is “soluble”.
Consider “MLREFSFYDVPPAHVPPVSEPLEIACYSLSRDRELLLDDSKLSYYYPPPLFSDLNTGFPNRFHPPKSDPDPISIVKDVLMTKGIQMNSSFLTWRGLITKIMCAPLDPRNHWETYLVMDPTSGIIMMEERTRSETSYANQDRMCYWGYKFEAISTLPEIWDACSRDQIEQRDNQDVVPDEQYCSIVKINIGKSKLILAGEVDCIWDKKPCSAKESDVHSDDGTIEEDASNAENPNLHYVELKTSKKYPLENYGMRKKLLKYWAQSFLLGIGRIIIGFRDDNGILIEMKELFTHQIPKMLRPYFKPNDWTPNRLLVVLEHALEWIKQTVKQHPPSTEFTLSYTGGSKLVLRQIILEHHHHHH”, for which the “soluble on expression in E. coli” value is “soluble”.
As to “MLREKAMRSWKPIALGVTLALSSQFSWAAVIETTRLVGFGEAKYPENFTHFDYVNPQAPKYGKVTFGELGTYDNFNRFASRGVAAANTAELYDPLMFSPADEIDSYYPLIASKIRYSDDFTWLEIDLNPNARFHDGKPITAQDVEFSFEKFMAEGVPQYRVYYQDVKSVKAIAERTVRIEMKQPNREQLFSLAQSTRVLPKHYWQYKNLAEPLNEPPVGSGAYQIVDFKPGQSVTYKLNPDYWAKDLPVNVGRNNFAQIQYDYYRDDTVMLEAFKAGEFDLREENQAKFWATSYTGRNFDQGLIKKEEIAHQAPASTQGFIFNTQRPVFQDVRVREALNYALDFEWMNKNLFYDQYQRTRSYFQNTEYEAQGLPNAAELAVLTPYKEQLPARVFTETYQPSVTDGSGRIRTQMREAFALLKEAGWELKNKVMTNVKTGEPLSFELLIYSPTTERIAIPLQKNLQLMGIEMKIRTVDTTQYTKRLRDRDFDMISHGFSANPYPSPNLLIVWNSNYMDSSYNSAGANHPVIDALTEQIAKSQQDTEKLRALGSALDRVLQWNFYIIPQWHLSMYRVAMWDKFSRPSVLPKYSLGLDTWWIDQEKAARLPEKRR”, the “soluble on expression in E. coli” value is recorded as “not soluble”.
As for “MLRGGVNDCKIKWEFLIGNSIDSSPILAKNGTIYLGSSNKNLYAINTDGSVKWFFKSGEIIECRPSIGKDGTIYFGSDKVYAINPDGTEKWRFDTKKAIVSDFTIFEDILYVTSMDGHLYAINPDGTEKWRFKTKKAIYATPIVSEDGTIYVGSNDNYLYAINPDGTEKWRFKTNDAITSAASIGKDGTIYFGSDKVYAINPDGTEKWNFYAGYWTVTRPAISEDGTIYVTSLDGHLYAINPDGTEKWRFKTGKRIESSPVIGNTDTIYFGSYDGHLYAINPDGTEKWNFETGSWIIATPVIDENGTIYFGTRNGKFYALFNLEHHHHHH”, the “soluble on expression in E. coli” value is reported as “soluble”.
As for “MLRNLKKTLVLDSSVFIQGIDIEGYTTPSVVEEIKDRESKIFLESLISAGKVKIAEPSKESIDRIIQVAKETGEVNELSKADIEVLALAYELKGEIFSDDYNVQNIASLLGLRFRTLKRGIKKVIKWRYVCIGCGRKFSTLPPGGVCPDCGSKVKLIPRKRLEHHHHHH”, the “soluble on expression in E. coli” value is “not soluble”.
For “MLRRSSRHADQRKNGAQLRAEEEANKVKLRLTAENEKLKSEVEKLKKDHEELSRVTLKVNTEFTIQESHMARLLRENMSLKEQLNDFSFKLRFRDDMSRVEEQVKKEQGVTDGYRRRVNQLTEFHVKSQEEQRGEPFPWRTCEICACKFEGETMDQTPRVLGCGHTMCMGCVQKIVGQGYIKCPFCRIVTKIGTTPLNNLPKNYIVLNM”, the “soluble on expression in E. coli” value is recorded as “not soluble”.
For “MLSFCPSCNNMLLITSGDSGVYTLACRSCPYEFPIEGIEIYDRKKLPRKEVDDVLGGGWDNVDQTKTQCPNYDTCGGESAYFFQLQIRSADEPMTTFYKCVNCGHRWKEN”, the “soluble on expression in E. coli” value was “not soluble”.
With “MLSPDNVFIAIKPVDMRRGIDSLTQYIQDELRSTWHEGAAFVFVNKARSRIKVLRWDKHGVWLCTRRLHKGSFRWPRANDAAWHLTPDEFNWLIAGVDWQQVKGHDLTKWVWQNEPELRPENTQNTLLTQ”, the “soluble on expression in E. coli” value is reported as “not soluble”.
Turning to “MLSRFSGKVALVTGSSNGIGRAAAVLFAKDGAKVTVTGRNAERLEETRQEILKSGVPESHVLSVATDLAAEKGQDELVNSTIQKFGRLDILVNNAGAAFNDDQGRVGVDQDVSVYDKIMQINMRSVVTLTQKAKEHLVKAKGEIVNVSSIAGTAHAQPGVMYYAMSKSALDQFTRCAAIDLIQYGVRVNSVSPGGVTTGFGEAMGMPSGAFEEMMKFMESRKECIPSGAVAKPIDIANIIAFLADRKLSSYIIGQSIVADGGSTLVLGMNAHNWADLMKQS”, the “soluble on expression in E. coli” value was “not soluble”.
In the case of “MLSTIRYYYEHSLIEEKTKHQELSWQTPISRSLVTHDPSTGGIQLSKKNAMLNDAVTTTTTVEVFRAPTNTDMISLTPASNGGPPLLVRTNGPQYEQWNDRRVQTMMVDDDRRDLAKGVQWKERLIEESDRRYRDNGSDFYDEITEPTQFIHHDYRPKPLGFQTITHPIIMTGSRDDLRSQPPQYPAPLSPLYIVPDRHRNIANSVSPGQYSRRSNGYEDRRKDTEELRDERKRENEQNQNRERYHHRRSKSSNRDDASVSHRSLRHRSMSPASRRSFGTSLGGSQEFVIPAHSPIGSTLMLASPDPNELPGRPASAKSQEIFALYQTRDAYNRIVDQL”, the “soluble on expression in E. coli” value is “not soluble”.
The value for “MLSVRVAIVGGGLAGLYAAALLEARGVTDYVLLEARETFGGRIMSVPVAAEPDAQRDAAERFDLGATWFWPAMQPELLRVVTAFGVEAFEQYETGAMLVERARDQPAMRIDAGASMSGAWRMAGGMGALTDAISRRLDAARLRAGWRVQRLRKVDEGVDVEAEDGVGRARCWRAAQVLLAMPPRLAVRTVAFAPALPDVLALPWAACQTWMAPHAKYLAVYDMPFWREQGLSGGARSAAGPLAEIHDASGQQGGAALFGFLGVPAAARGRMAQADLRAACRAQLVRLFGERARWPRAEFLKDWADDVCTAVDADRCAQGSHAELPPALADAGAWKDRLIGIASEWSPAFGGYAAGAVDAARRGVEALLGSPDAGVPARRHQGRLWEAWRLEHHHHHH” was “soluble”.
